# Where two headings read alike, the source gives them in different places.
# T1: mouse Robo 4 on MS-1 mouse endothelial cells (mouse, UniProt Q8C310 28-1012)
# T1 sequence: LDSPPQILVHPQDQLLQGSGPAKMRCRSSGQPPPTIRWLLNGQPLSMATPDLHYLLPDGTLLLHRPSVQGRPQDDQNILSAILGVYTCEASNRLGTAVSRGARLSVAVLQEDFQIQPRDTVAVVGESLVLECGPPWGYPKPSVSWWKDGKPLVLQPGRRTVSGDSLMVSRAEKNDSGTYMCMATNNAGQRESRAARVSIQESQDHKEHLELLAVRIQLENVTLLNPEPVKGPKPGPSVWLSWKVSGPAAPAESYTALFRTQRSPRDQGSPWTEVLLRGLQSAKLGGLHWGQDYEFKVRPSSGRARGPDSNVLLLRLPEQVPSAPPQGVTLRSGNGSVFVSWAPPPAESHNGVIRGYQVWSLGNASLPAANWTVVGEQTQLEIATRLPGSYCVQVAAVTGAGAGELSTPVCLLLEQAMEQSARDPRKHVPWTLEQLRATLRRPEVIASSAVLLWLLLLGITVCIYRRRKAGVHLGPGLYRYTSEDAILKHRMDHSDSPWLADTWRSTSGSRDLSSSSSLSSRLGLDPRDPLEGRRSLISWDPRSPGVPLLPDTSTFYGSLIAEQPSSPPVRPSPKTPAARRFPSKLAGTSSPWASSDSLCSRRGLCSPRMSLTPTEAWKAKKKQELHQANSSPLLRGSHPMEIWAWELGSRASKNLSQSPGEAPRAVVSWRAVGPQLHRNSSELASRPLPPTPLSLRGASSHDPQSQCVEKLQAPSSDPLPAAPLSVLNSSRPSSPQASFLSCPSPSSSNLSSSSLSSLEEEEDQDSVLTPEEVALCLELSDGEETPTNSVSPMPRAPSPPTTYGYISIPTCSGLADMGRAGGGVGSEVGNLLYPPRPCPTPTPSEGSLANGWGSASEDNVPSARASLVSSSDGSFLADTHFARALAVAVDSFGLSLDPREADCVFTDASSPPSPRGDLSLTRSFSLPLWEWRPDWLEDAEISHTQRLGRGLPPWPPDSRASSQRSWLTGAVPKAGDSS
# T2: full-length human Robo 4 (on cells) (human, UniProt Q8WZ75 28-1007)
# T2 sequence: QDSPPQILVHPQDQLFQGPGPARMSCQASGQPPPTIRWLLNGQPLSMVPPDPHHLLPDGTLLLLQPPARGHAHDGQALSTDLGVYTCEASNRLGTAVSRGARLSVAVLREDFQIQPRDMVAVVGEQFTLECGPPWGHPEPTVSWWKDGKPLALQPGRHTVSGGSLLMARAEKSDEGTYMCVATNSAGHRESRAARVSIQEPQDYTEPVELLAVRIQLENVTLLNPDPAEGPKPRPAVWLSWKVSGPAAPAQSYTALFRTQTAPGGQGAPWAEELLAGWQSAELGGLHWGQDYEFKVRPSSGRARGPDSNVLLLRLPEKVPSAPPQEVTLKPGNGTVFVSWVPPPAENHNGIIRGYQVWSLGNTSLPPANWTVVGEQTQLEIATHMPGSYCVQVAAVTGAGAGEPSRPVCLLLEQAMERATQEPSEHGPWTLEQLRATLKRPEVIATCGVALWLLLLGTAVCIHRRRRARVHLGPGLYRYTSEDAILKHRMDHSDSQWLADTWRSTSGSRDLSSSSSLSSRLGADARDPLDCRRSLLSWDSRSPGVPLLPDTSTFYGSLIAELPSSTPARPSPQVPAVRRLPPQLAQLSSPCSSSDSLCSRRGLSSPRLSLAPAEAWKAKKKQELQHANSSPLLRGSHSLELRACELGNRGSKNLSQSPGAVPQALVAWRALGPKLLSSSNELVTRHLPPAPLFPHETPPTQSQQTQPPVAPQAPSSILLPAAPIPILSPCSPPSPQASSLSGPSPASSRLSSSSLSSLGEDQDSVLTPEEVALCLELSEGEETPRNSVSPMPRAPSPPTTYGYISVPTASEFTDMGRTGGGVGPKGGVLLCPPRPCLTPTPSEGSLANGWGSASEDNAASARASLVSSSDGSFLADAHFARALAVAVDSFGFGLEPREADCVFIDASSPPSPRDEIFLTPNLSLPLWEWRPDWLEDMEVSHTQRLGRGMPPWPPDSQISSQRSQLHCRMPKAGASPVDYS
# Assays:
# [1] = biological target: T3, recombinant human Robo1 antigen (human, UniProt Q9Y6N7 59-886, limits assumed); experiment: ELISA, hybridoma supernatant
# T3 construct: limits of the construct and tags are not described in the text; also called human Robol
# [2] = biological target: T1, mouse Robo 4 on MS-1 mouse endothelial …; experiment: cell-based or functional assay
# [3] = biological target: T2, full-length human Robo 4 (on cells); experiment: cell-based or functional assay
# [4] = biological target: T2, full-length human Robo 4 (on cells); experiment: cell-based or functional assay; remark: listed apart in the source
# [5] = biological target: T2, full-length human Robo 4 (on cells); experiment: cell-based or functional assay; remark: listed apart in the source
# [6] = biological target: T1, mouse Robo 4 on MS-1 mouse endothelial …; experiment: cell-based or functional assay; remark: listed apart in the source
# [7] = biological target: T1, mouse Robo 4 on MS-1 mouse endothelial …; experiment: cell-based or functional assay; remark: listed apart in the source
# T3 sequence (Q9Y6N7 other isoform, or with tags, fused parts or gaps limits assumed): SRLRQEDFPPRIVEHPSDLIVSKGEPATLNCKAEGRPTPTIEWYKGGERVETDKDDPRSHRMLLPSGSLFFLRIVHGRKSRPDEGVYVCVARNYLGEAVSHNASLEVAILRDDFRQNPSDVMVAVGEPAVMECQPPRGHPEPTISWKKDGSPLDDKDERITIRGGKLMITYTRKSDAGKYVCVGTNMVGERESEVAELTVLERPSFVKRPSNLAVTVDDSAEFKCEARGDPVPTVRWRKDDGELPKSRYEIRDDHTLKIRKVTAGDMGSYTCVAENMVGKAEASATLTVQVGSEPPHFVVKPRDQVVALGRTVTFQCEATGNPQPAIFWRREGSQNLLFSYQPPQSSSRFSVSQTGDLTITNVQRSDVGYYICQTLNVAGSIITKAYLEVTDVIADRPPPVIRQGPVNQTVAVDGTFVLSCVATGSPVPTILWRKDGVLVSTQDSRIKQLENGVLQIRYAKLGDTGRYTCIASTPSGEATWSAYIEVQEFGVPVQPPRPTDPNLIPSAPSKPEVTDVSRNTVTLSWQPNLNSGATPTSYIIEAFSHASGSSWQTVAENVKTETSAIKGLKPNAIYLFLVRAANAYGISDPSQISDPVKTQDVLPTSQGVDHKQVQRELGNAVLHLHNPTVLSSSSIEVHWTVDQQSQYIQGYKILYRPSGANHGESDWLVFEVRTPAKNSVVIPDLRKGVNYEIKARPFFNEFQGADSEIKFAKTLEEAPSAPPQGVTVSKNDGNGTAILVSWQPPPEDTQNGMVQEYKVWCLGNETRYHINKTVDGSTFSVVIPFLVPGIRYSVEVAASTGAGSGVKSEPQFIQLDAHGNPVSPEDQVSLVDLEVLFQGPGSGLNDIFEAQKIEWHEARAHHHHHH
binder,measurement,setting,value
"01E06 hybridoma clone (Armenian hamster IgG, supernatant) (antibody, V domains shown) VH: EVQLVESGGGLSQPGNSLKLSCEASGFTFRNYDMSWVRQAPGKGLEWVAYISSGGGPIYYVDAVKGRFTISRDNAKNLLFLQMNNLRSEDTAVYYCARDLADIGVFDYWGQGTMVTVSS VL: DFKMTQSPDILSPSLGESVTITCQSSQNIYSNLAWYQQKPGEHPKLLIYTASILADGIPSRFTGSGSGTQFSLKISSLQPDDVANYYCQQYVYYRTFGPGTKLEIK",binding result,[1],no binding
"01F05 hybridoma clone (Armenian hamster IgG, supernatant) (antibody, V domains shown) VH: QVQLKQSGAELVKPGASVKISCKTSVYTFTYGYMHWVEQKPGQGLEWIGRIDPDSGNSMYNQKFQGRATLTRDKSSSTVYMELRSLTSEDSAVYYCARSMRYSGYRDYALDLWGQGTQVTVSS VL: QLVLTQSPSASASLGASVKLTCTLSSQHSSYGITWLQQHPDKAPKYVMYLKSDGSHTKGADIPDRFSGSSSGVHRYLSISNVQPEDEAIYFCVTYDSTHVFGSGTQLTVLG",binding result,[1],no binding
"Molecule J, 1+1 Fab-CrossFab (VH/VL exchange in CD3 binder, CD3 binder V9, Robo 4 binder 01F05) (bispecific antibody) chain 1: QVQLKQSGAELVKPGASVKISCKTSVYTFTYGYMHWVEQKPGQGLEWIGRIDPDSGNSMYNQKFQGRATLTRDKSSSTVYMELRSLTSEDSAVYYCARSMRYSGYRDYALDLWGQGTQVTVSSASTKGPSVFPLAPSSKSTSGGTAALGCLVKDYFPEPVTVSWNSGALTSGVHTFPAVLQSSGLYSLSSVVTVPSSSLGTQTYICNVNHKPSNTKVDKKVEPKSCDGGGGSGGGGSDIQMTQSPSSLSASVGDRVTITCRASQDIRNYLNWYQQKPGKAPKLLIYYTSRLESGVPSRFSGSGSGTDYTLTISSLQPEDFATYYCQQGNTLPWTFGQGTKVEIKSSASTKGPSVFPLAPSSKSTSGGTAALGCLVKDYFPEPVTVSWNSGALTSGVHTFPAVLQSSGLYSLSSVVTVPSSSLGTQTYICNVNHKPSNTKVDKKVEPKSC chain 2: QLVLTQSPSASASLGASVKLTCTLSSQHSSYGITWLQQHPDKAPKYVMYLKSDGSHTKGADIPDRFSGSSSGVHRYLSISNVQPEDEAIYFCVTYDSTHVFGSGTQLTVLGQPKAAPSVTLFPPSSEELQANKATLVCLISDFYPGAVTVAWKADSSPVKAGVETTTPSKQSNNKYAASSYLSLTPEQWKSHRSYSCQVTHEGSTVEKTVAPTECS chain 3: EVQLVESGGGLVQPGGSLRLSCAASGYSFTGYTMNWVRQAPGKGLEWVALINPYKGVSTYNQKFKDRFTISVDKSKNTAYLQMNSLRAEDTAVYYCARSGYYGDSDWYFDVWGQGTLVTVSSASVAAPSVFIFPPSDEQLKSGTASVVCLLNNFYPREAKVQWKVDNALQSGNSQESVTEQDSKDSTYSLSSTLTLSKADYEKHKVYACEVTHQGLSSPVTKSFNRGEC","EC50 of T-cell mediated killing of MS-1 cells (LDH release, human pan T cells, E:T 5:1, 17 h)",[2],0.004 nM
same,"EC50 of T-cell mediated killing of HUVECs (LDH release, human PBMCs, E:T 10:1), 24 h",[3],0.204 nM
same,"EC50 of T-cell mediated killing of HUVECs (LDH release, human PBMCs, E:T 10:1), 48 h",[3],0.127 nM
same,"EC50 of T-cell mediated killing of HUVECs (LDH release, human pan T cells, E:T 5:1, 22 h)",[4],0.026 nM
same,"EC50 of T-cell mediated killing of HUVECs (LDH release, human PBMCs, E:T 10:1), 24 h",[5],0.105 nM
same,"EC50 of T-cell mediated killing of HUVECs (LDH release, human PBMCs, E:T 10:1), 48 h",[5],0.0472 nM
same,"EC50 of T-cell mediated killing of MS-1 cells (LDH release, human PBMCs, E:T 10:1), 24 h",[6],0.294 nM
same,"EC50 of T-cell mediated killing of MS-1 cells (LDH release, human PBMCs, E:T 10:1), 48 h",[6],0.106 nM
"Molecule K, 1+1 Fab-CrossFab (VH/VL exchange in CD3 binder, CD3 binder 2C11, Robo 4 binder 01F05) (bispecific antibody) chain 1: DIQMTQSPSSLPASLGDRVTINCQASQDISNYLNWYQQKPGKAPKLLIYYTNKLADGVPSRFSGSGSGRDSSFTISSLESEDIGSYYCQQYYNYPWTFGPGTKLEIKSSASTKGPSVFPLAPSSKSTSGGTAALGCLVKDYFPEPVTVSWNSGALTSGVHTFPAVLQSSGLYSLSSVVTVPSSSLGTQTYICNVNHKPSNTKVDKKVEPKSCGGGGSGGGGSQVQLKQSGAELVKPGASVKISCKTSVYTFTYGYMHWVEQKPGQGLEWIGRIDPDSGNSMYNQKFQGRATLTRDKSSSTVYMELRSLTSEDSAVYYCARSMRYSGYRDYALDLWGQGTQVTVSSASTKGPSVFPLAPSSKSTSGGTAALGCLVKDYFPEPVTVSWNSGALTSGVHTFPAVLQSSGLYSLSSVVTVPSSSLGTQTYICNVNHKPSNTKVDKKVEPKSCD chain 2: QLVLTQSPSASASLGASVKLTCTLSSQHSSYGITWLQQHPDKAPKYVMYLKSDGSHTKGADIPDRFSGSSSGVHRYLSISNVQPEDEAIYFCVTYDSTHVFGSGTQLTVLGQPKAAPSVTLFPPSSEELQANKATLVCLISDFYPGAVTVAWKADSSPVKAGVETTTPSKQSNNKYAASSYLSLTPEQWKSHRSYSCQVTHEGSTVEKTVAPTECS chain 3: EVQLVESGGGLVQPGKSLKLSCEASGFTFSGYGMHWVRQAPGRGLESVAYITSSSINIKYADAVKGRFTVSRDNAKNLLFLQMNILKSEDTAMYYCARFDWDKNYWGQGTMVTVSSASVAAPSVFIFPPSDEQLKSGTASVVCLLNNFYPREAKVQWKVDNALQSGNSQESVTEQDSKDSTYSLSSTLTLSKADYEKHKVYACEVTHQGLSSPVTKSFNRGEC","EC50 of T cell mediated killing of MS-1 cells by murine splenocytes (LDH release, E:T 10:1, 48 and 72 h)",[7],1.3 nM
"01F09 hybridoma clone (Armenian hamster IgG, supernatant) (antibody, V domains shown) VH: QIQLQESGPGLVKPSQSLSLTCSVTGYSISSGSLWTWIRQFPGNNLEWMGYISYAGGIDYNPSLTSRISITRDTSRNQFFLQLESVTTQDTATYYCATPGGYPFHFDYWGQGTMVTVSS VL: QPVLTQSPSASASLGASVKLTCTLNSQFSTYNIGWYQQHRDKPPKYVMFVKGDGGHSKADGIPDRFSGSSSGADRYLTISNIQAEDEAIYFCGADYNNAGQYGCVFGSGTHFTVLG",binding result,[1],no binding
